Measurements reported in publication PMC12676778, “Long-tailed class I myosins rely on tail-mediated phosphoinositide recognition for specific membrane recruitment” (Cell Communication and Signaling : CCS, 2025).
Entries after “also recorded” stand apart in the source; their conditions may differ.

B1: Myosin-1B-tail: Recombinant GST-/YFP-tagged tail construct of Dictyostelium discoideum myosin-1B (amino acids 717–1111) (protein)
chain: QRAQIAHMFKDKKERQRNSIDRKFTSDYIDFENQFGLQEAMQNAHKKERVVFADTVIKIDRRAKQKNYEMVLTDQALYFVEKSIKKKVLVHTLIRRVGLREIKGVSISTLSDNVIVFHLPEHDQVIENDKKTEIIIVLVEYFKAIGGGSLNVQFSDRINYTLKKGEQKEISFQKSEQCPTLVVKKGGKGLIGTIASGLPSSTDSTPKNYNPNSMSQASSRPAPQQSAGRGRGMPQGAGQPQPQQPQQQQRPMPQPQQGGGARPMPQPQQGGGARPMGAPQQGGAPQQGAGRQLPQPTQQGGAPGGRGAPMGRGAPGGGPAGAGGRPLPTVAKPAPQPSRPTAKALYDYDASSTDELSFKEGDIIFIVQKDNGGWTQGELKSGQKGWAPTNYLQYN
modifications: left off: GST, N-terminal, state not stated | YFP, C-terminal, kept
B2: Myosin-1C-tail: Recombinant GST-/YFP-tagged tail construct of Dictyostelium discoideum myosin-1C (protein)
chain: RYWHDMASRIKNAYRNYKAFQFECSNRIKNAFRNYKLYRQRCAQTIQGYFRAWKQASPFFDLRMQNEQLFQGRKERNRFSMISVRKYFGDYLDVRSQSYFLDAMAEGRNEDVIFSSKSQVMVHPILSANKLSPRFLIVTKQAIYLIKLKQKKNLATYLLDRRVPLAEVTSFSLSSLADNLLVIHTSTQFDVAVTTEFKTELVALINKQKGTTLAVNFGQSIQYFKKKGSNNTVTFLKDEMHKEIFLKKNQFHIASGLPASTTVAKVRKNPSQVSTPSKPIAKPVAKPMVAKPSGGSVIMKKPAPAAPPSGPPVMKKPAPTAPGGAPMMKKPAPAPGGAPMMKKPAPVPGGPAPGGSAIMKPAGGVSKPLPSPTGAPMMKKPAPTAPGGPAPAGAPTPMMKKPAGQPMMKPIAKPQPTPMKKPAAPPPQQYIALYEYDAMQPDELTFKENDVINLIKKVDADWWQGELVRTKQIGMLPSNYVQQI
modifications: left off: GST, end not stated, state not stated | YFP, end not stated, kept
notes: Recombinant GST-/YFP-tagged tail construct of Dictyostelium discoideum myosin-1C

Columns and labels:
[1] = biological target: PI (unphosphorylated phosphatidylinositol) lipid vesicles; assay: Fluorescence-based cosedimentation of myosin-1 tails with lipid vesicles containing PI; conditions: 500 nM tail, accessible phospholipid, read-out: KD, tail binding to PI
Procedure: (§1) Phospholipid binding assays were performed using commercially available lipid vesicles (PolyPIPosomes™, 200 nm diameter; Echelon Biosciences) composed of 95% PE + PC and 5% of the phosphoinositide of interest. Accessible phospholipid concentration was calculated as half of the total phospholipid content. Myosin-1 tail (500 nM) in co-sedimentation buffer (10 mM Tris, pH 7.5, 100 mM NaCl, 1 mM EGTA) was incubated with increasing concentrations of PolyPIPosomes™ (accessible PIP range: 10 nM to 10 mM) at room temperature for 30 min, followed by centrifugation at 25,000 g to separate bound and unbound fractions. Bound myosin-1 tail was quantified either by measuring fluorescence intensity of the supernatant (Jasco FP-6500 fluorimeter, excitation 514 nm) or by western blot of pellet and supernatant fractions using anti-GST antibody as indicated in the experiments. […] Microtubule binding assays employed 100 mM PIPES (pH 6.8), 2 mM MgCl2, 1 mM EGTA, 20 µM paclitaxel, and 1 mM GTP. […] Fluorescence intensities of pellet and supernatant fractions were quantified as described above. […]
(§2) Fig. 1 Myosin-1 tail binding to phosphoinositides. a Representative fluorescence spectra of supernatants from co-sedimentation assays with YFP-tagged myosin-1D tail and increasing concentrations of lipid vesicles containing PI(3,5)P₂. […]

microtubules and F-actin = assay: TIRF microscopy of microtubule/F-actin cross-linking by myosin-1 tails; type: biochemical; conditions: 1 µM tail construct
[2] = biological target: PI(3)P lipid vesicles (PolyPIPosomes); assay: Cosedimentation of myosin-1 tails with PI(3)P vesicles; conditions: 500 nM tail; vesicles with 5% phosphoinositide; read-out: KD, tail binding to PI(3)P
Procedure: as §1, §2

[3] = biological target: PI(3,4)P2 lipid vesicles (PolyPIPosomes); assay: Cosedimentation of myosin-1 tails with PI(3,4)P2 vesicles; conditions: 500 nM tail; vesicles with 5% phosphoinositide; read-out: KD, tail binding to PI(3,4)P2
Procedure: as §1, §2

[4] = test system: PI(3,4,5)P3 lipid vesicles; assay: Competitive binding of myosin-1 tails to PI(3,4,5)P3 vesicles (western blot of supernatant and pellet)
Procedure: Phospholipid binding assays were performed using commercially available lipid vesicles (PolyPIPosomes™, 200 nm diameter; Echelon Biosciences) composed of 95% PE + PC and 5% of the phosphoinositide of interest. Accessible phospholipid concentration was calculated as half of the total phospholipid content. Myosin-1 tail (500 nM) in co-sedimentation buffer (10 mM Tris, pH 7.5, 100 mM NaCl, 1 mM EGTA) was incubated with increasing concentrations of PolyPIPosomes™ (accessible PIP range: 10 nM to 10 mM) at room temperature for 30 min, followed by centrifugation at 25,000 g to separate bound and unbound fractions. Bound myosin-1 tail was quantified either by measuring fluorescence intensity of the supernatant (Jasco FP-6500 fluorimeter, excitation 514 nm) or by western blot of pellet and supernatant fractions using anti-GST antibody as indicated in the experiments. […] Microtubule binding assays employed 100 mM PIPES (pH 6.8), 2 mM MgCl2, 1 mM EGTA, 20 µM paclitaxel, and 1 mM GTP. […] Fluorescence intensities of pellet and supernatant fractions were quantified as described above.
To gain deeper insight into the binding specificity of the myosin tails, we conducted competition experiments in which two tail constructs were simultaneously present in the PIP-binding assay, allowing us to assess their ability to compete for binding to the same lipid species. We performed these experiments using PI(3,4,5)P₃ (PIP₃) as an exemplary lipid, first in the absence and then in the presence of a second tail isoform. Two tail pairs were tested: those of myosin-1B and myosin-1D, and those of myosin-1C and myosin-1D (Figs. 3a, c). […] These findings establish myosin-1D as the dominant binder of PIP₃, capable of outcompeting myosin-1B and myosin-1C for membrane association.
Fig. 3 Competitive binding of myosin-1 tails to PI(3,4,5)P₃. a, c Western blots of supernatant and pellet fractions from lipid vesicles containing PI(3,4,5)P₃ following incubation with 2 µM myosin-1B tail (~ 70 kDa) (a) or myosin-1C tail (~ 70 kDa) (c) in competition with myosin-1D tail (~ 100 kDa). The total accessible PI(3,4,5)P₃ concentration was maintained at 2 µM. b, d Dashed boxes indicate the fraction of myosin-1 tails bound to lipid vesicles in the absence of the other myosin isoform. Orange bars denote the fraction of bound myosin in the presence of the competing myosin TEXT PRINTED IN THE PICTURE: (b) myosin-1D: % myosin bound to PI(3,4,5)P3: 90%; % myosin bound to PI(3,4,5)P3: 86% | (b) myosin-1B: % myosin bound to PI(3,4,5)P3: 71%; % myosin bound to PI(3,4,5)P3: 32% | (d) myosin-1D: % myosin bound to PI(3,4,5)P3: 94%; % myosin bound to PI(3,4,5)P3: 85% | (d) myosin-1C: % myosin bound to PI(3,4,5)P3: 32%; % myosin bound to PI(3,4,5)P3: 9%

[5] = test system: isolated nuclei from Dictyostelium cells; assay: Binding of YFP-tagged myosin tail constructs to isolated nuclei, confocal microscopy; design: species or system Dictyostelium discoideum; conditions: 1 µM tail construct, 30 min
[6] = biological target: PI(3,4,5)P3 lipid vesicles (PolyPIPosomes); assay: Cosedimentation of myosin-1 tails with PI(3,4,5)P3 vesicles; conditions: 500 nM tail; vesicles with 5% phosphoinositide; read-out: KD, tail binding to PI(3,4,5)P3
Procedure: as §1, §2

[7] = biological target: PI(4)P lipid vesicles (PolyPIPosomes); assay: Cosedimentation of myosin-1 tails with PI(4)P vesicles; conditions: 500 nM tail; vesicles with 5% phosphoinositide; read-out: KD, tail binding to PI(4)P
Procedure: as §1, §2

[8] = biological target: PI(5)P lipid vesicles (PolyPIPosomes); assay: Cosedimentation of myosin-1 tails with PI(5)P vesicles; conditions: 500 nM tail; vesicles with 5% phosphoinositide; read-out: KD, tail binding to PI(5)P
Procedure: as §1, §2

PC, PS lipid vesicles = assay: Cosedimentation of myosin-1 tails with lipid vesicles devoid of phosphoinositides; conditions: 500 nM tail; vesicles without phosphoinositide; read-out: KD, tail binding to PC, PS
Procedure: as §1, §2

microtubules [9] = biological target: microtubules; design: method as in Rump et al., 2010; conditions: ref Rump et al., 2010; read-out: KD, tail binding to microtubules; cited from earlier work
[10] = biological target: PI(4,5)P2 lipid vesicles (PolyPIPosomes); assay: Cosedimentation of myosin-1 tails with PI(4,5)P2 vesicles; conditions: 500 nM tail; vesicles with 5% phosphoinositide; read-out: KD, tail binding to PI(4,5)P2
Procedure: as §1, §2

microtubules [11] = test system: microtubules; design: method as in PMID 21712373; conditions: read-out: Inhibition of the cold-induced depolymerization of microtubules IC50; cited from earlier work
[12] = biological target: PI(3,5)P2 lipid vesicles (PolyPIPosomes); assay: Cosedimentation of myosin-1 tails with PI(3,5)P2 vesicles (fluorescence or immunoblot detection); conditions: 500 nM tail; vesicles with 5% phosphoinositide; read-out: KD, tail binding to PI(3,5)P2
Procedure: Phospholipid binding assays were performed using commercially available lipid vesicles (PolyPIPosomes™, 200 nm diameter; Echelon Biosciences) composed of 95% PE + PC and 5% of the phosphoinositide of interest. Accessible phospholipid concentration was calculated as half of the total phospholipid content. Myosin-1 tail (500 nM) in co-sedimentation buffer (10 mM Tris, pH 7.5, 100 mM NaCl, 1 mM EGTA) was incubated with increasing concentrations of PolyPIPosomes™ (accessible PIP range: 10 nM to 10 mM) at room temperature for 30 min, followed by centrifugation at 25,000 g to separate bound and unbound fractions. Bound myosin-1 tail was quantified either by measuring fluorescence intensity of the supernatant (Jasco FP-6500 fluorimeter, excitation 514 nm) or by western blot of pellet and supernatant fractions using anti-GST antibody as indicated in the experiments. […] Fluorescence intensities of pellet and supernatant fractions were quantified as described above. […]
as §2
Supplementary Fig. S2. Lipid dot blot assays and comparisons between fluorescence-based detection and immunoblot detection of myosin-1-PI(3,5)P2 interactions. […]

[13] = in presence of competing myosin-1D tail, 2 µM each, PI(3,4,5)P3 2 µM
[14] = single tail 2 µM, absence of other isoform, accessible PI(3,4,5)P3 2 µM

Molecule	Kd [1] [µM]	cross-linking of microtubules and actin filaments (microtubules and F-actin)	Kd [2] [µM]	Kd [3] [µM]	% myosin bound to PI(3,4,5)P3 [4, 13] [%]	% myosin bound to PI(3,4,5)P3 [4, 14] [%]	association of YFP-tagged tail construct with isolated nuclei [5]	Kd [6] [µM]	Kd [7] [µM]	Kd [8] [µM]	Kd (PC, PS lipid vesicles) [µM]	Kd (microtubules [9]) [µM]	Kd [10] [µM]	IC50 (microtubules [11]) [µM]	Kd [12] [µM]
B1	38.2 ± 4	not observed	8.3 ± 1	2.2 ± 0.4	32	~71	do not bind to nuclei; also recorded: did not associate with the nuclei	1.1 ± 0.2	2.3 ± 0.4	7.7 ± 0.6	> 100				
B2	5.4 ± 0.8	cross-linking activity	4 ± 0.3		9	~32	do not bind to nuclei; also recorded: did not associate with the nuclei	2.5 ± 0.3	0.4 ± 0.1	0.5 ± 0.1	31.5 ± 2.7	0.08 ± 0.05	1.1 ± 0.2	~0.002	0.6 ± 0.1
